Values quoted from earlier work in patent publication US20250341526A1, “NOVEL DYES” (Quantum-Si Incorporated, priority 2024, published 2025).
“Also recorded” adds a separate entry of the source.

tested on: amino acid at a terminal position of a polypeptide; conditions: Table 1, ClpS proteins; amino acid at terminal position; inferred from literature and/or demonstrated by the inventors; cited from earlier work

Molecule | Binding Pref.
PS417: ClpS amino acid recognition protein, SEQ ID NO: 40 (protein) MSNLDTDVLIDEKVKVVTTEPEKYRVILLNDDVTPMDFVINILVSIFKHSTDTAKDLTLKIHKEGSAIVGVYTYEIAEQKGIEATNESRQHGFPLQVKIERENTL | F, Y, W
PS421: ClpS amino acid recognition protein, SEQ ID NO: 44 (protein) MTTPNKRPEFEPEIGLEDEVGEPRKYKVLLHNDDYTTMDFVVQVLIEVFRKSETEATHIMLTIHEKGVGTCGIYPAEVAETKINEVHTRARREGFPLRASMEEV | F, Y, W, L
PS405: ClpS amino acid recognition protein, SEQ ID NO: 28 (protein) MVSIGAATVACAEGRPIFSGYFDWLAAMPETVTVPRTRLRPKTERPKLHKVILVNDDYTPREFVVTVLKGEFHMSEDQAQRVMITAHRRGVCVVAVFTKDVAETKATRASDAGRAKGYPLQFTTEPEE | F, Y, W
PS396: ClpS amino acid recognition protein, SEQ ID NO: 24 (protein) MSDNDVALKPKIKSKPKLERPKLYKVILVNDDFTPREFVIAVLKMVFRMSEETGYRVMLTAHRLGTSVVVVCARDIAETKAKEAVDFGKEAGFPLMFTTEPEE | F, W
PS409: ClpS amino acid recognition protein, SEQ ID NO: 32 (protein) MPARLTDIEGEPNTDPVEDVLLADPELKKPQMYAVVMYNDDYTPMEFVVDVLQNHFKHTLDSAISIMLAIHQQGKGIAGIYPKDIAETKAQTVNRKARQAGYPLLSQIEPQG | F, Y, W, L
PS412: ClpS amino acid recognition protein, SEQ ID NO: 35 (protein) MATKREGSTLLEPTAAKVKPPPLYKVLLLNDDYTPMEFVVLVLKKFFGIDQERATQIMLKVHTEGVGVCGVYPRDIAHTKVEQVVDFARQHQHPLQCTMEES | F, Y, W, L
PS422: ClpS amino acid recognition protein, SEQ ID NO: 45 (protein) MTQIKPQTIPDTDVISQTQSDWQMPDLYAVIMHNDDYTTMDFVVFLLNAVFDKPIEQAYQLMMQIHQTGRAVVAILPYEIAEMKVDEATSLAEQEQFPLFISIEQA | F, Y, W, L
PS416: ClpS amino acid recognition protein, SEQ ID NO: 39 (protein) MTSQTDTLVKPNIQPPSLFKVIYINDSVTTMEFVVESLMSVFNHSADEATRLTQLVHEEGAAVVAILPYELAEQKGMEVTLLARNNGFPLAIRLEPAV | F, Y, W, L
PS413: ClpS amino acid recognition protein, SEQ ID NO: 36 (protein) MMKQCGSYFLIKAVQDFKPLSKHRSDTDVITETKIQVKQPKLYTVIMYNDNYTTMDFVVYVLVEIFQHSIDKAYQLMMQIHESGQAAVALLPYDLAEMKVDEVTALAEQESYPLLTTIEPA | F, Y, W, L
PS404: ClpS amino acid recognition protein, SEQ ID NO: 27 (protein) MPVSVTAPQTKTKTKPKVERPKLYKVILVNDDFTPREFVVRVLKAEFRMSEDQAAKVMMTAHQRGVCVVAVFTRDVAETKATRATDAGRAKGYPLLFTTEPEE | F, Y, W
PS410: ClpS amino acid recognition protein, SEQ ID NO: 33 (protein) MGDDDQSSREGEGDVAFQTADPELKRPSLYRVVLLNDDYTPMEFVVHILEQFFAMNREKATQVMLAVHTQGKGVCGVYTKDIAETKAALVNDYSRENQHPLLCEVEELDDESR | F, W, L
PS420: ClpS amino acid recognition protein, SEQ ID NO: 43 (protein) MSDYSNQISQAGSGVAEDASITLPPERKVVFYNDDFTTMEFVVDVLVSIFNKSHSEAEELMQTVHQEGSSVVGVYTYDIAVSRTNLTIQAARKNGFPLRVEVE | F, Y, W, L
PS398: ClpS amino acid recognition protein, SEQ ID NO: 26 (protein) MPLKAQNRSIVGRRDEWPPPTTQSSSETKSESKRVSDTGADTKRKTKTVPKVEKPRLYKVILVNDDYTPREFVLVVLKAVFRMSEDQGYKVMITAHQKGSCVVAVYTRDIAETKAKEAVDLAKEIGFPLMFRTEPEE | F, W
PS408: ClpS amino acid recognition protein, SEQ ID NO: 31 (protein) MTDPPSKGREDVDLATRTKPKTQRPPLYKVLLLNDDFTPMEFVVHILERLFGMTHAQAIEIMLTVHRKGVAVVGVFSHEIAETKVAQVMELARRQQHPLQCTMEKE | F, Y, W, L
PS397: ClpS amino acid recognition protein, SEQ ID NO: 25 (protein) MSDNEVAPKRKTRVKPKLERPRLYKVILVNDDYTPRDFVVMVLKAIFRMSEEAGYRVMMTAHKLGTSVVVVCARDIAETKAKEATDLGKEAGFPLMFTTEPEE | F, Y, W
PS369: ClpS amino acid recognition protein, SEQ ID NO: 2 (protein) MTSTLRARPARDTDLQHRPYPHYRIIVLDDDVNTFQHVVNCLVTFLPGMTRDQAWAMAQQVDGEGSAVVWTGPQEQAELYHVQLGNHGLTMAPLEPV | F, Y, W, L
PS370: ClpS amino acid recognition protein, SEQ ID NO: 3 (protein) MFNSLGTVLDPKKSKAKYPEARVIVLDDNFNTFQHVANCLLAIIPRMCEQRAWDLTIKVDKAGSAEVWRGNLEQAELYHEQLFSKGLTMAPIEKT | F, L
PS411: ClpS amino acid recognition protein, SEQ ID NO: 34 (protein) MTRPDAPEYDDDLAVEPAEPELARPPLYKVVLHNDDFTPMEFVVEVLQEFFNMDSEQAVQVMLAVHTQGKATCGIFTRDIAETKSYQVNEYARECEHPLMCDIEAAD | F, Y, W, L
PS407: ClpS amino acid recognition protein, SEQ ID NO: 30 (protein) MPSNKRQMCLSDIKNSFNESGIVDWHISPRLANEPSEEGDSDLAVQTVPPELKRPPLYAVVLLNDDYTPMEFVIEILQQYFAMNLDQATQVMLTVHYEGKGVAGVYPRDIAETKANQVNNYARSQGHPLLCQIEPKD | F, Y, W, L
PS419: ClpS amino acid recognition protein, SEQ ID NO: 42 (protein) MEKEQSLCKEKTHVELSEPKHYKVVFHNDDFTTMDFVVKVLQLVFFKSQLQAEDLTMKIHLEGSATAGIYSYDIAQSKAQKTTQMAREEGFPLRLTVEPEDN | F, Y, W, L
PS415: ClpS amino acid recognition protein, SEQ ID NO: 38 (protein) MALPETRTKIKPDVNIKEPPNYRVIYLNDDKTSMEFVIGSLMQHFSYPQQQAVEKTEEVHEHGSSTVAVLPYEMAEQKGIEVTLDARAEGFPLQVKIEPAER | F, Y, W
PS414: ClpS amino acid recognition protein, SEQ ID NO: 37 (protein) MQAAGNEPPDPQNPGDVGNGGDGGNQDGSNTGVVVKTRTRTRKPAMYKVLMLNDDYTPMEFVVHVLERFFQKNREEATRIMLHVHRRGVGVCGVYTYEVAETKVTQVMDLARQNQHPLQCTIEKE | F, Y, W, L
PS418: ClpS amino acid recognition protein, SEQ ID NO: 41 (protein) MSDHNIDHDTSVAVHLDVVVREPPMYRVVLLNDDFTPMEFVVELLMHFFRKTAEQATQIMLNIHHEGVGVCGTYPREIAETKVAQVHQHARTNGHPLKCRMEPS | F, Y, W, L
PS406: ClpS amino acid recognition protein, SEQ ID NO: 29 (protein) MPDATTTPRTKTLTRTARPPLHKVILVNDDFTPREFVVRLLKAEFRTTGDEAQRIMITAHMKGSCVVAVFTREIAESKATRATETARAEGFPLLFTTEPEE | F, Y, W

same assay, conditions: Table 2; amino acid at terminal position (phosphotyrosine also internal); inferred from literature and/or demonstrated by the inventors; cited from earlier work

Molecule | Binding Pref.
H. sapiens p62 fragment 1-180: amino acid recognition protein, SEQ ID NO: 121 | K, R, H,; also recorded: W, F, Y
H. sapiens p62 fragment 126-180: amino acid recognition protein, SEQ ID NO: 122 | K, R, H,; also recorded: W, F, Y
Rattus norvegicus p62 protein: amino acid recognition protein, SEQ ID NO: 124 | K, R, H,; also recorded: W, F, Y
